The values below come from PMC9164069, “NADPH–Cytochrome P450 Reductase Mediates the Fatty Acid Desaturation of ω3 and ω6 Desaturases from Mortierella alpina” (Current Issues in Molecular Biology, 2022).

Series [1] deals with T1, NADPH-CytP450R (Homo sapiens, UniProt P16435).
T1 construct: gene POR; soluble catalytic domain, C-terminal 614 residues (VRESSFV through SLDVWS), N-terminal His6 tag (pET15b), E. coli BL21(DE3), about 70 kDa
T1 sequence (P16435 64-677): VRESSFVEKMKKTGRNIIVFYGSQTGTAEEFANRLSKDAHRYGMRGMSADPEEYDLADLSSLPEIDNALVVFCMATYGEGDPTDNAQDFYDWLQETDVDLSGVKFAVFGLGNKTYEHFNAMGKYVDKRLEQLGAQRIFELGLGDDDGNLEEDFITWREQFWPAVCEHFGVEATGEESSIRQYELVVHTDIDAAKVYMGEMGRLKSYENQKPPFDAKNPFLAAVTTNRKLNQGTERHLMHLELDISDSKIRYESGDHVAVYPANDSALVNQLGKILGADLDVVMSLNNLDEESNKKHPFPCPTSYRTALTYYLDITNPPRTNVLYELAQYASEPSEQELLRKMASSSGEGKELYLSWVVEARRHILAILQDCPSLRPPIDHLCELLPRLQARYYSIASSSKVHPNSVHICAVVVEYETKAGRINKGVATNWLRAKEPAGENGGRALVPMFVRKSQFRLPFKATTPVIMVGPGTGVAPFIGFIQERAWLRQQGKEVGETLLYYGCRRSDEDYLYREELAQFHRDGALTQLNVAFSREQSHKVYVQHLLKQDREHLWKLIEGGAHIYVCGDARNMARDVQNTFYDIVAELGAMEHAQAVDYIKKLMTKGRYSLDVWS
In words: absorption shift of Cytb5 on reduction ([…] to […] nm). In kind it is biochemical. The following applies: pH 7.5, 25 °C; 100 mM Hepes, 150 mM NaCl, 0.25 µM CytP450R, 5 µM human Cytb5, 5 µM NADPH.

Substrate in series [2]: CCCCC/C=C\C/C=C\C/C=C\CCCCC(=O)SCCNC(=O)CCNC(=O)[C@H](O)C(C)(C)COP(=O)(O)OP(=O)(O)OC[C@H]1O[C@@H](n2cnc3c(N)ncnc32)[C@H](O)[C@@H]1OP(=O)(O)O
In words: purified protein. The following applies: pH 7.5, 28 °C, 25 mM Hepes, 150 mM NaCl, 1 µM NADPH, 100 nM desaturase, 0.5 µM human Cytb5, 1 µM human CytP450R, 0.002% Fos-16. Type of series: biochemical, Mortierella alpina.

Substrate in series [3]: CCCCC/C=C\C/C=C\C/C=C\C/C=C\CCCC(=O)SCCNC(=O)CCNC(=O)[C@H](O)C(C)(C)COP(=O)(O)OP(=O)(O)OC[C@H]1O[C@@H](n2cnc3c(N)ncnc32)[C@H](O)[C@@H]1OP(=O)(O)O
In words: purified protein. Type of series: biochemical, Mortierella alpina. The settings on record: pH 7.5, 28 °C, 25 mM Hepes, 150 mM NaCl, 1 µM NADPH, 100 nM desaturase, 0.5 µM human Cytb5, 1 µM human CytP450R, 0.002% Fos-16.

Substrate in series [4]: CCCCC/C=C\C/C=C\CCCCCCCC(=O)SCCNC(=O)CCNC(=O)[C@H](O)C(C)(C)COP(=O)(O)OP(=O)(O)OC[C@H]1O[C@@H](n2cnc3c(N)ncnc32)[C@H](O)[C@@H]1OP(=O)(O)O
Briefly: purified protein. The following applies: pH 7.5, 28 °C, 25 mM Hepes, 150 mM NaCl, 1 µM NADPH, 100 nM desaturase, 0.5 µM human Cytb5, 1 µM human CytP450R, 0.002% Fos-16. Type of series: biochemical, Mortierella alpina.

Substrate in series [5]: CCCCCCCC/C=C\CCCCCCCC(=O)SCCNC(=O)CCNC(=O)[C@H](O)C(C)(C)COP(=O)(O)OP(=O)(O)OC[C@H]1O[C@@H](n2cnc3c(N)ncnc32)[C@H](O)[C@@H]1OP(=O)(O)O
Briefly: purified protein. In kind it is biochemical, Mortierella alpina. The following applies: pH 7.5, 28 °C, 25 mM Hepes, 150 mM NaCl, 1 µM NADPH, 100 nM desaturase, 0.5 µM human Cytb5, 1 µM human CytP450R, 0.002% Fos-16.

Substrate in series [6]: CCCCCC/C=C\CCCCCCCC(=O)SCCNC(=O)CCNC(=O)[C@H](O)C(C)(C)COP(=O)(O)OP(=O)(O)OC[C@H]1O[C@@H](n2cnc3c(N)ncnc32)[C@H](O)[C@@H]1OP(=O)(O)O
Briefly: purified protein. In kind it is biochemical, Mortierella alpina. The settings on record: pH 7.5, 28 °C, 25 mM Hepes, 150 mM NaCl, 1 µM NADPH, 100 nM desaturase, 0.5 µM human Cytb5, 1 µM human CytP450R, 0.002% Fos-16.

As to `NC(=O)C1=CN([C@@H]2O[C@H](COP(=O)(O)OP(=O)(O)OC[C@H]3O[C@@H](n4cnc5c(N)ncnc54)[C@H](OP(=O)(O)O)[C@@H]3O)[C@@H](O)[C@H]2O)C=CC1` [NADPH], the “absorption shift of Cytb5 on reduction (412 to 422, 521, 554 nm)” value in series [1] was “when NADPH was added, Cytb5 was instantly reduced”.

B1: M. alpina ω3 desaturase (Mortierella alpina) (protein)
chain: MAPPHVVDEQVRRRIVVEDEIKSKKQFERNYVPMDFTIKEIRDAIPAHLFIRDTTKSILHVVKDLVTIAIVFYCATFIETLPSLALRVPAWITYWIIQGTVMVGPWILAHECGHGAFSDSKTINTIFGWVLHSALLVPYQAWAMSHSKHHKGTGSMTKDVVFIPATRSYKGLPALEKPAVEEEVSEQEHHHHEESIFAETPIYTLGALLFVLTFGWPLYLIVNFSGHEAPHWVNHFQTVAPLYEPHQRKNIFYSNCGIVAMGSILTYLSMVFSPLTVFMYYGIPYLGVNAWIVCITYLQHTDPKVPHFRDNEWNFQRGAACTIDRSFGTIVNHLHHHIGDSHQCHHMFSQMPFYNAVEATKYLKAKLGKYYIFDDTPIAKALYRNWRECKFVEDEGDVVFYKH
notes: membrane desaturase expressed in Pichia pastoris (pPink-HC) with 3C site, ZZ-tag and RGS-His10-tag; tags cut off by rhinovirus 3C protease; Fos-Choline-16 solubilized, IgG Sepharose and size exclusion purified
For orientation: Km means the concentration of substrate that gives half-maximal velocity. Usually kcat stands for the number of substrate molecules converted per active site and unit of time at saturation. By kcat/Km is commonly meant the second-order rate constant that governs catalysis at low substrate concentration. B1: in series [2], the Michaelis-Menten constant (Km) stood at 87.8 ± 9.9 µM, the kcat was 0.168 ± 0.00667 s⁻¹ and the specificity constant (kcat/Km) is 2000 M⁻¹ s⁻¹. Further, in series [3], the Km amounted to 157.0 ± 23.8 µM, the kcat was determined as 0.0233 ± 0.00167 s⁻¹ and the catalytic efficiency (kcat/Km) was found to be 167 M⁻¹ s⁻¹. In addition, in series [4], the Km is 16.0 ± 2.2 µM, the turnover number (kcat) is 0.11 ± 0.01 s⁻¹ and the kcat/Km was 6830 M⁻¹ s⁻¹.

B2: M. alpina ω6 desaturase (Mortierella alpina) (protein)
chain: MAPPNTIDAGLTQRHISTSAAPTSAKPAFERNYQLPEFTIKEIRECIPAHCFERSGLRGLCHVAIDLTWASLLFLAATQIDKFENPLIRYLAWPAYWIMQGIVCTGIWVLAHECGHQSFSTSKTLNNTVGWILHSMLLVPYHSWRISHSKHHKATGHMTKDQVFVPKTRSQVGLPPKENAAAAVQEEDMSVHLDEEAPIVTLFWMVIQFLFGWPAYLIMNASGQDYGRWTSHFHTYSPIFEPRNFFDIIISDLGVLAALGALIYASMQLSLLTVTKYYIVPYLFVNFWLVLITFLQHTDPKLPHYREGAWNFQRGALCTVDRSFGKFLDHMFHGIVHTHVAHHLFSQMPFYHAEEATYHLKKLLGEYYVYDPSPIVVAVWRSFRECRFVEDHGDVVFFKK
notes: as for B1
As to B2, in series [5], the Michaelis-Menten constant (Km) stood at 5.4 ± 0.8 µM, the catalytic constant (kcat) came to 0.00833 ± 0.000333 s⁻¹ and the kcat/Km was 1500 M⁻¹ s⁻¹. In series [6], the Km amounted to 3.9 ± 0.9 µM, the kcat was determined as 0.00333 ± 0.000167 s⁻¹ and the kcat/Km turned out to be 667 M⁻¹ s⁻¹.
